Laboratory results as given in a protein production outcome set (Wang et al. 2014).

Test: label from the status in PepcDB records

Sequence	protein production
MNKEALVNRLNASAKRQKADIVIKNGKIMDVYNQEWIYEDIAITDGVIVGLGEYEGENIIDAEGQMIVPGFIDGHVHIESSMVTPIEFAKAVLPHGVTTVVTDPHEIANVSGEKGIEFMLEQARHTPLNIHFMLPSSVPAASFERSGAILKAADLKPFYEEEEVLGLAEVMDYVSVQQAEKDMVQKLLDARVAGKRIDGHLAGLSTDLINIYRTAFVLNDHEVTSKEEALDRIRRGMYVMMREGSVAKNTLNVLPAVNEKNRTPVFFCTDDKHVDDLLSEGSVNHQVKMAIQAGLNPFLAYQLGSLNAAECYGLDTKGAIAPGFDADLLFVSDLENVTVTMTMVKGQTVAEDSKAVYQDHASTAAPDQALLDSVKLAAPLNKQDFHMPIDSEQQINVIQIIPNQLETRLVQVPAPVAREFEPDTELDLLKIAVVERHKGLKETGLGVVKGFGFKSGAIATTISHDSHNIIAVGTNDEDIAAAVNKLQEIGGGLTIIKNGEELHSVPLPIAGLLSDQSAEQVNQSLLTLHDKLSLIGFTGGFNPFLTLSFLALPVIPDIKMTTTGLFDVKSFQHISLQLEHHHHHH	not failed
MGVLHALREEEGAARARFEEALTHDAGHYRARMNIGNLDLEAGRLPEAEAAYREVLKLAPEYDGAHHNLGVALRRQGKLYESVGSIRKAQRLGVSGARAAAKEDMQEQLRLNPHLRWIRAAIFIGVLLLLGVLLWLNRGRA	failed
MKQLMLYCRSGFEKECAGEIQDKATQLEVYGFPRVKKNSGYVVFECYQDGDAEKLVKGLDFSSLIFARQMFAVAAEFEALPSEDRISPILAELSEFESFPRCGDLRIETPDTNEAKELLKFCRKFTVPMRQALRGKGLMWNKDNAKKPVLHICFVAPGHCYVGYSLPGNNSQFFMGIPRLKFPADAPSRSTLKLEEAFHVFIPRDEWDERLAPGMWGVDLGACPGGWTYQLVKRSMFVHCVDNGMMADSLMETGQIKHHMVDGFKFEPDRKNVTWIVCDMVEKPARVAHLMGQWLLKGWAKEAIFNLKLPMKGRYDEVLQDLENLKMFLIENKVKFKLQAKHLYHDREEITIHIQCLSNISPH	failed
MPIIELVILLACLVLLSNVLSHYLVAIPVSLIQVGLGLGVALLLNVQVKLQTDWFMLVFIAPMLYNDGREFPKQELWELRGAIFANAIVLVFITTILGGFLIHVLIPTIPLAVGIALAAILSPTDPIAVQSISEGVKLPKEILHLVSGESLINDASGLIGFKYALAAAVTGTFVLGEAVGDFFYISLVGLAVGLALITIIQLIRDVLRREGINDIVFNVVLQILTPFAIYFIAEEWFHASGVVAVVAAGVLSHLQNSHESEDAPELRLVTERVWNVVVYLLNGIVFLILGIELPAATQATIKGAHTNTFHAVFDVLIVWGILLLIRVAWTYAYMLFNWLRHHKKAKPSLRIAALSGLSGVRGAITMAGVFTIPTVVASGKAFPERALVLFIAAGVIIVSLVAAAAILPLMAAKSLPFVTRGSSPDEDDAVLAEGTDDGDDSSGQLPQLTYKQARIYILQLAIQNIEEHRRPANQRAAYDLILDQQFQIRRLEVASQTADELAPMLTDELELRLVALNGERAAVREMIANKQTSKLAGQVYLRRVDRREQRFLQATHRQGLPTLRSLRLLLTRAMQGIRLWLAPGDSEELRVALLDIQREASKAAIKALSQYLKQANVDEQQFDRQALYHLIVHYRNRIENAKNDHTLSRDDYEQQLHGLRIKSLGAERAGVQHLLESGQISLRTAAKLRQFINYSENLLMLNDIEADED	failed
MSKAVLTTKVTPGYKDLPEVRYHFPRTYLNQVRQAVGDYILYYEPRRTTVELSSFGGRQSYFGVARVVDLVEDKDQADHYYALVDDYLDFDRPVPFVEGGHYYESALRKSDGSTNKGAFGRAVRLIPDAEFDQIWKAGFAPILGEETSRHQPRQFEISEPTVPFERPIIEMTISRPFRERSFMYNVRAAYENRCAMTGLRLINGGGRPEVQAAHIQPVAEKGPDSVRNGLALSGTVHWMFDRGLISIGDDYKILTAENHVPDDALRLLNHSRTINLPNDTAFYPNALFLKFHRDKIFKG	failed
MGNLTTILYFAYAPALALLWYFYHQDRLEPEPKRVVIGTFILGGTLSVSVALIVESLLVPRWFPRIPALLPATFLYISLIAGIVEEPAKALAIKYAYNSGHLYGIMDGVVYGVAAGLGFAATENLLYGLGYGVHVTIQRALLTPIGHATWSAIVGVGYGLKAEGKVYTLAPYFTLAVLLHFLWDYYAFMSSISPVYYGIVLLIFTINVLIIRWLIILGRKEDMERFWWYRILGGRRW	failed
MLADPAQPEHVFIVEDSRGATELKLYKSHYTIGKADSCDIRLHSIYASRQHATLVRFLTENGEVRYRLIDGDPETSRRSANGTYVNNRSITECDLKHYDQILFGADVKATYFYLSPQFRSLEHHHHHH	failed
